The target in test [1] is FERM domain of human SNX27 (hSNX27FERM). Description: ITC, hSNX27FERM titrated into mSNX1 proteins. It counts as binding. The settings on record: 25°C. The method, then: Human SNX1 and SNX2 peptide sequences were synthesized by Genscript (USA). To obtain the peptide stock solutions at neutral pH, 100 mM Tris-HCl, pH 10.6 was used to dissolve the peptide to a final concentration of 8 mM. The peptides were SNX1_35-51 […], SNX135-51(D45K) […], SNX1_75-92 […], SNX2_16-33 […], SNX2_16-33(DLF/SSS) […], and SNX2_62-82 […].
All microcalorimetry experiments were conducted at 25°C using a PEAQ ITC (Malvern, UK) in 50 mM HEPES (pH 7.5), 200 mM NaCl, 5% glycerol, and 1 mM β-ME (ITC buffer). All proteins were purified by SEC using the same buffer prior to ITC experiments to avoid buffer mismatches. To measure binding of SNX27 to SNX1 proteins, 800 μM of hSNX27FERM was titrated into 20 μM of GST-mSNX1_1-139 or His-SNX1FL. For the binding of SNX1 and SNX2 peptides to SNX27, peptides were diluted 10-fold to 800 μM in ITC buffer peptides and titrated into 20 μM SNX27FL proteins containing the same 1:10 ratio of peptide buffer (100 mM Tris-HCl, pH 10.6). The competitive ITC experiments were carried out by titrating 800 μM SNX1_75-92 peptides into 20 μM proteins with 2-fold molar excess SNX2_16-33 peptide preincubated with SNX27 on ice for an hour. For ITC experiment using SNX1_75-92 against hSNX27 wild-type and single-site mutants, 600 μM SNX1_75-92 peptide was titrated into 20 μM hSNX27 proteins.
The ITC experiments were conducted with 1 injection of 0.4 μL followed by a series of 12 injections of 3.2 μL each with 180-second intervals and a stirring speed of 850 rpm. The heat exchange of interactions was obtained through integrating the observed peaks and background correction by subtracting the heats of dilution. Data were analyzed with Malvern software package by fitting and normalized data to a single-site binding model, yielding the thermodynamic parameters Kd, ΔH, ΔG, and −TΔS for all binding experiments. The stoichiometry was refined initially, and if the value was close to 1, then N was set to exactly 1.0 for calculation. All experiments were performed at least twice to guarantee reproducibility of the data.
In general terms: Isothermal titration calorimetry measures the heat released or taken up as one component is titrated into another.

The subject of the next test is SNX27. Description: GFP trap co-immunoprecipitation of GFP-SNX1/SNX2 constructs from HEK-293T, quantitative western blot: SNX27. It counts as binding. The settings on record: Fig 3F, S2B Fig; double aDLF mutants in HEK293T, GFP trap. As to the method: HeLa and HEK-293T cell lines were sourced from ATCC. Authentication was from the ATCC. Cells were grown in DMEM (Sigma-Aldrich) supplemented with 10% (v/v) FCS (Sigma-Aldrich) and penicillin/streptomycin (Gibco, USA) and grown under standard conditions. FuGENE HD (Promega, USA) was used for transient transfection of DNA according to the manufacturer’s instructions. Cycloheximide was used to prevent up-regulation of protein synthesis. In this case, cycloheximide (C7698; Sigma-Aldrich) at 10 μg/ml was added to the cells 48 hours after FuGENE transfection for the indicated time points. For the generation of CRISPR-Cas9 SNX27 knockout HeLa cells, HeLa cells were transfected with pX330 plasmid coding for the gRNA against the gene of interest together with a puromycin resistance–expressing plasmid. Cells were then subjected to puromycin selection for 24 hours. The pooled population of cells was subjected to lysis and western blotting to confirm the knockout. The VPS35 knockout clonal cell line used in this study was characterized previously. […]
For western blotting, cells were lysed in PBS with 1% (v/v) Triton X-100 and protease inhibitor cocktail. The protein concentration was determined with a BCA assay kit (Thermo Fisher Scientific, USA), and equal amounts were resolved on NuPAGE 4% to 12% precast gels (Invitrogen, USA). […]
Background: In western blotting, separated proteins are transferred to a membrane and probed.

The mark [2] stands for this setting: pH 7.5, 800 μM hSNX27FERM into 20 μM mSNX1 protein.

B1: mSNX1FL: recombinant full-length mouse SNX1 with an amino-terminal His-tag (protein)
chain: MASGGGGCSASERLPPPFPGMDPESEGAAGASEPEAGDSDTEGEDIFTGAAAATKPQSPKKTTSLFPIKNGSKENGIHEDQDQEPQDLFADATVELSLDSTQNNQKTMPGKTLTSHSPQEATNSPKPQPSYEELEEEEQEDQFDLTVGITDPEKIGDGMNAYVAYKVTTQTSLPMFRSRQFAVKRRFSDFLGLYEKLSEKHSQNGFIVPPPPEKSLIGMTKVKVGKEDSSSAEFLEKRRAALERYLQRIVNHPTMLQDPDVREFLEKEELPRAVGTQALSGAGLLKMFNKATDAVSKMTIKMNESDIWFEEKLQEVECEEQRLRKLHAVVETLVNHRKELALNTALFAKSLAMLGSSEDNTALSRALSQLAEVEEKIEQLHQEQANNDSFLLAELLSDYIRLLAIVRAAFDQRMKTWQRWQDAQATLQKKRESEARLLWANKPDKLQQAKDEITEWESRVTQYERDFERISTVVRKEVTRFEKEKSKDFKNHVMKYLETLLHSQQQLAKYWEAFLPEAKAIS
modifications: left off: His-tag, N-terminal, kept
In turn, B1 gave a dissociation constant (Kd) in test [1] (50 mM HEPES pH 7.5, 200 mM NaCl, 5% glycerol, 1 mM β-ME, 800 μM hSNX27FERM titrated into 20 μM mSNX1 protein, single-site fit, mean of at least 2 experiments) of 41 µM. In addition, in test [1] (setting [2]), the “-TΔS” value amounted to 0.24 ± 3.10 kcal/mol, the ΔG is -5.99 ± 0.02 kcal/mol and the ΔH was -6.23 ± 3.11 kcal/mol.

B2: mSNX1_1-139: recombinant truncated mSNX1 containing residues 1 to 139, GST fusion protein (protein)
chain: MASGGGGCSASERLPPPFPGMDPESEGAAGASEPEAGDSDTEGEDIFTGAAAATKPQSPKKTTSLFPIKNGSKENGIHEDQDQEPQDLFADATVELSLDSTQNNQKTMPGKTLTSHSPQEATNSPKPQPSYEELEEEEQ
modifications: left off: GST, N-terminal, kept
notes: recombinant truncated mSNX1 containing residues 1 to 139, GST fusion protein
As to B2, in test [1] (setting [2]), the ΔG was -6.02 ± 0.01 kcal/mol and the ΔH is given as -6.93 ± 0.01 kcal/mol.

B3: GFP-SNX2(D26K,D72K): mutant targeting both aDLF motifs in SNX2 (protein, UniProt O60749 1-519, looked up, variant D26K D72K)
Sorting nexin-2: MAAEREPPPLGDGKPTDFEDLEDGEKLFTSTVSTLESSPSSPEPASLPAEDISANSNGPKPTEVVLDDDREKLFAEATEEVSLDSPEREPILSSEPSPAVTPVTPTTLIAPRIESKSMSAPVIFDRSREEIEEEANGDIFDIEIGVSDPEKVGDGMNAYMAYRVTTKTSLSMFSKSEFSVKRRFSDFLGLHSKLASKYLHVGYIVPPAPEKSIVGMTKVKVGKEDSSSTEFVEKRRAALERYLQRTVKHPTLLQDPDLRQFLESSELPRAVNTQALSGAGILRMVNKAADAVNKMTIKMNESDAWFEEKQQQFENLDQQLRKLHVSVEALVCHRKELSANTAAFAKSAAMLGNSEDHTALSRALSQLAEVEEKIDQLHQEQAFADFYMFSELLSDYIRLIAAVKGVFDHRMKCWQKWEDAQITLLKKREAEAKMMVANKPDKIQQAKNEIREWEAKVQQGERDFEQISKTIRKEVGRFEKERVKDFKTVIIKYLESLVQTQQQLIKYWEAFLPEAKAIA
modifications: GFP tag
Consider B3, for which, in the test on SNX27, the “SNX27 binding, in words” value is “near undetectable levels”.

What is called Kd is the equilibrium constant for the complex coming apart. Lower therefore signals a tighter complex.
